For one substance, Kd results are on record in publication doi:10.1101/099465.

For this test, the target named is Laminin-111 (UniProt P19137). The experiment in a line: SPR.

For orientation: Kd means a measure of binding affinity in units of concentration. Lower therefore signals a tighter complex.

Substance VEGFA165 (ligand) showed a Kd of 0.047 µM. That is a double-digit nanomolar value.
